The values that follow come from patent publication US20240228986A1, “ENGINEERED CELLS, ENZYMES, AND METHODS FOR PRODUCING CANNABINOIDS” (priority 2021, published 2024).

Holding throughout (type): cell-based, Yarrowia
Assay [1] deals with olivetolic acid. Nature of the assay: Linkers for GPS1.1-MPT4 fusions, in vivo assay (Example 6). Conditions: 1 mM olivetolic acid, 72 h quench; for CBGA / FCBGA: 2% glycerol, strain sCL-SE-0128; for CBGA/FCBGA: product ratio. The procedure:
As described in detail below, plasmids pCL-SE-0380 (MPT4), pCL-SE-0406, pCL-SE-0435, and pCL-SE-0437 were transformed into strain sCL-SE-0128. Four separate colonies per transformation were precultured for 24 h in YNB containing glycerol (2%), casamino acids (0.5%), and MES (100 mM pH 6.5). Pre-culture was used to inoculate assay medium comprised of YNB containing glycerol (2%), casamino acids (0.5%), MES (100 mM pH 6.5), and olivetolic acid (1 mM). Cultures were quenched after 72 h total growth by mixing with equal volume of EtOH. Enzymes produced CBGA and FCBGA. Averages and standard deviations were calculated from replicates.
However, sCL-SE-0128 expresses HMGR and GPS1.1 to increase intracellular GPP levels for prenylation of OA to CBGA. The plasmids that were transformed contain either a gene expressing a prenyl-transferase (pCL-SE-0380 (MPT4)) or a gene expressing a fusion between GPS1.1 and a prenyl-transferase with different linker sequences.
(§1) Overnight YPD (10 g/L yeast extract, 20 g/L peptone, 2% dextrose) cultures were inoculated from glycerol stocks of the appropriate strain and grown at 30° C. with 250 rpm shaking. Once cultures had reached an OD600 of 4-6, cultures were centrifuged at 500×g for 5 min, supernatants were discarded, and cell pellets were resuspended in equal volume of water. Resuspended cells were centrifuged at 500×g for 5 min, supernatants were discarded, and cells were resuspended in a volume (75 μL×OD×Vculture) of transformation cocktail (45% PEG-400, 0.1 M LiAc, 0.1 M DTT, and 25 ug/100 μL SS Salmon Sperm DNA). For each transformation, >1 μg of plasmid DNA was added to 55 μL cells/transformation cocktail and vortexed for 2 s. Transformations were incubated at 39° C. for 1 h with 250 rpm shaking. Transformations were resuspended in 750 μL YPD with 1 M sorbitol and recovered at 30° C. overnight with 250 rpm shaking. The next day, transformations were centrifuged at 500×g for 5 min, supernatants were discarded, and cell pellets were resuspended in 750 YPD. Resuspended transformations were plated on YPD with appropriate selection or YNBD (6.71 g/L yeast nitrogen base+nitrogen, 0.5% casamino acids, 2% dextrose) agar plates and grown at 30° C. for 2 days. Individual colonies were patched onto YPD plates with appropriate selection or YNBD plates and grown at 30° C. overnight. Patches were used to inoculate 0.5 mL YPD with appropriate selection or YNBD precultures in 96 w blocks and grown at 30° C. for 24-48 h with 1000 rpm shaking. For assays, 0.5 mL YPD with appropriate selection or YNBD cultures containing substrate were inoculated with 2 μL from precultures and grown at 30° C. for 2-4 days with 1000 rpm shaking with 2% glucose added every 24 h. Assay cultures were quenched by addition of 0.5 mL ethanol with 0.2% formic acid and 0.5 mg/mL pentyl-benzoic acid. Precipitates were pelleted by centrifuging at 4600×g for 10 min and then 200 μL was transferred to fresh plates, sealed, and analyzed via HPLC.
(§2) All samples were quenched with equal volume of EtOH containing 0.2 mg/mL internal standard (3,5-Diisopropyl-2-hydroxybenzoic acid CAS #2215-21-6) centrifuged, and clarified solutions were analyzed by HPLC-MS
(§3) • Column: 2.1×50 mm COSMOCORE PBr (Nacalai USA, Inc.) • Mobile Phase: A; 0.1% formic acid in water, B; 0.1% formic acid in acetonitrile • Flow: 0.45 mL/min • Temp: % 50 Celsius • Gradient: 20%B at 0 min, 70%B at 2.3 min, 89% B at 4.2 min, 20% B at 4.3 min, 20%B at 6 min

Assay [2] concerns olivetolic acid. Nature of the assay: GPS-APT fusions, OA feed in vivo assay (Example 11). The procedure: As described below, plasmids pCL-SE-0406, pCL-SE-0664, pCL-SE-0663, pCL-SE-0662, pCL-SE-0380 (MPT4), pCL-SE-0337.MPT21, pCL-SE-0337.MPT26, and pCL-SE-0337.MPT31 were transformed into strain sCL-SE-0128. Multiple colonies per transformation were precultured for 48 h in YNB containing glucose (2%), casamino acids (0.5%), and MES (100 mM pH 6.5). Pre-culture was used to inoculate assay medium comprised of YNB containing glucose (2%), casamino acids (0.5%), MES (100 mM pH 6.5), and olivetolic acid (2 mM). Cultures were quenched with equal volume of ethanol after 48 h total growth and assayed for CBGA and FCBGA. Averages and standard deviations were calculated from replicates.
Soluble prenyl transferase APT73.77 was fused with GPS1.1 at the N- or C-terminus with different linkers creating the plasmids shown in Table 14. These fusion proteins were expressed and screened as described in Example 8 (olivetolic acid feed)
as §1, §2, §3

For assay [3], the system named is olivetolic acid. Nature of the assay: GPS1.1 fusions of MPT21 mutants, OA feed (Example 8, Table 10). Conditions: in words; mutagenesis of MPT21, tested as GPS1.1-F11 fusions. As for the experimental part:
as §1, §2, §3

Where [4] appears, read: olivetolic acid feed as in Example 8, 48 h quench, strain sCL-SE-0128.

Substitutions are numbered along the chain they refer to.

B1: GPS1.1-F5-MPT4: fusion protein, SEQ ID NO: 17 (protein)
chain: MSKAKFESVFPRISEELVQLLRDEGLPQDAVQWFSDSLQYNCVGGKLNRGLSVVDTYQLLTGKKELDDEEYYRLALLGWLIELLQAFWLVSDDIMDESKTRRGQPCWYLKPKVGMIAIWDAFMLESGIYILLKKHFRQEKYYIDLVELFHDISFKTELGQLVDLLTAPEDEVDLNRFSLDKHSFIVRYKTAYYSFYLPVVLAMYVAGITNPKDLQQAMDVLIPLGEYFQVQDDYLDNFGDPEFIGKIGTDIQDNKCSWLVNKALQKATPEQRQILEDNYGVKDKSKELVIKKLYDDMKIEQDYLDYEEEVVGDIKKKIEQVDESRGFKKEVLNAFLAKIYKRQKGGGGSGGGGSGGGGSMSDNSIATKILNFGHTCWKLQRPYVVKGMISIACGLFGRELFNNRHLFSWGLMWKAFFALVPILSFNFFAAIMNQIYDVDIDRINKPDLPLVSGEMSIETAWILSIIVALTGLIVTIKLKSAPLFVFIYIFGIFAGFAYSVPPIRWKQYPFTNFLITISSHVGLAFTSYSATTSALGLPFVWRPAFSFIIAFMTVMGMTIAFAKDISDIEGDAKYGVSTVATKLGARNMTFVVSGVLLLNYLVSISIGIIWPQVFKSNIMILSHAILAFCLIFQTRELALANYASAPSRQFFEFIWLLYYAEYFVYVFI
modifications: GPS1.1-F5-MPT4, geranyl diphosphate synthase, membrane-bound prenyltransferase fusion protein
Take B1: in assay [1], the CBGA is 333 ± 129 µM, the FCBGA worked out at 49 ± 15 µM and the CBGA/FCBGA is reported as 6.8.

B2: APT73.77-F18-GPS1.1: fusion protein, SEQ ID NO: 66 (protein)
chain: MDEVYAAVEQTSRLLDVPCSPDRFEPVWKAFGDQLPDSHLVFSMAAGEAHRGELDFDFSLRPEGADPYTTALEHGFIEPTDHPVGSVLAEVGKRFAIASYGVEYGVVGGFKKSYAFFPLDDFPPLAQFAEVPSVPPCLAGHVETLTRLGFDDKVSIIGVNYRKNTLNVYLAASAVDTGDKLALLRAFGYPEPDARVRQFIERSFRLYPTFNWDSSAAERICFAVHTQQPGELPAPHDEPTEAFARQVPHVYEGGREFVSGVALAPSGASYYKLAALYQKARRCLDGGGGSLEDPAVWEAGKVVAKGVGTADITATTSNGLIASSEEADNAATSMSKAKFESVFPRISEELVQLLRDEGLPQDAVQWFSDSLQYNCVGGKLNRGLSVVDTYQLLTGKKELDDEEYYRLALLGWLIELLQAFWLVSDDIMDESKTRRGQPCWYLKPKVGMIAIWDAFMLESGIYILLKKHFRQEKYYIDLVELFHDISFKTELGQLVDLLTAPEDEVDLNRFSLDKHSFIVRYKTAYYSFYLPVVLAMYVAGITNPKDLQQAMDVLIPLGEYFQVQDDYLDNFGDPEFIGKIGTDIQDNKCSWLVNKALQKATPEQRQILEDNYGVKDKSKELVIKKLYDDMKIEQDYLDYEEEVVGDIKKKIEQVDESRGFKKEVLNAFLAKIYKRQK
modifications: APT73.77-F18-GPS1.1, mutant soluble aromatic prenyltransferase, geranyl diphosphate synthase fusion protein
For B2, in assay [2] (setting [4]), the CBGA came out at 382 ± 26 µM and the FCBGA is 149 ± 4 µM. In addition, the CBGA/FCBG in assay [2] (olivetolic acid feed, 48 h quench, product ratio) was determined as 2.6.

B3: MPT21.9 (protein)
chain: MSDNSIATKILNFGHTCWKLQRPYVVKGMISIACGLFGKELLHNTNLISWGLMWKAFFALVPILSFNFFASIMNQIYDVDIDRINKPDLPLVSGEMSIETAWILSIIVALTGLIVTIKLKSAPLFVFIYIFGIFAGFAYSVPPIRWKQNPSTNFLITISSHVGLAFTSYYASRAALGLPFELRPSFTFLLAFMTVMGMTIAFAKDISDIEGDAKYGVSTVATKLGARNMTFVVSGVLLLNYVAAILAGIIWPQAFNSNVMLLSHAILAFCLIFQTRELALANYASAPSRQFFEFIWLLYYAEYFVYVFI
modifications: MPT21.9 (recombinant membrane-bound prenyltransferase)
Take B3: in assay [3], the “activity towards CBGA formation” value is “improved activity towards CBGA formation”.

B4: MPT21.8 (protein)
chain: B3 chain with S71G
modifications: MPT21.8 (recombinant membrane-bound prenyltransferase)
Turning to B4, the “ratio of CBGA/FCBGA” value in assay [3] was “improved ratio of CBGA/FCBGA”.

B5: MPT21.18 (protein)
chain: B3 chain with S71A, T275A
modifications: MPT21.18 (recombinant membrane-bound prenyltransferase)
Consider B5, for which, in assay [3], the “activity towards CBGA formation” value is on record as “improved activity towards CBGA formation”.

B6: MPT21.10 (protein)
chain: B3 chain with S71A, I81M
modifications: MPT21.10 (recombinant membrane-bound prenyltransferase)
With B6, the “ratio of CBGA/FCBGA” value in assay [3] is reported as “improved ratio of CBGA/FCBGA”.

B7: MPT21.2 (protein)
chain: B3 chain with Y24M, S71A
modifications: MPT21.2 (recombinant membrane-bound prenyltransferase)
B7: the “ratio of CBGA/FCBGA” value in assay [3] was “improved ratio of CBGA/FCBGA”.

B8: GPS1.1-F10-MPT4: fusion protein, SEQ ID NO: 19 (protein)
chain: MSKAKFESVFPRISEELVQLLRDEGLPQDAVQWFSDSLQYNCVGGKLNRGLSVVDTYQLLTGKKELDDEEYYRLALLGWLIELLQAFWLVSDDIMDESKTRRGQPCWYLKPKVGMIAIWDAFMLESGIYILLKKHFRQEKYYIDLVELFHDISFKTELGQLVDLLTAPEDEVDLNRFSLDKHSFIVRYKTAYYSFYLPVVLAMYVAGITNPKDLQQAMDVLIPLGEYFQVQDDYLDNFGDPEFIGKIGTDIQDNKCSWLVNKALQKATPEQRQILEDNYGVKDKSKELVIKKLYDDMKIEQDYLDYEEEVVGDIKKKIEQVDESRGFKKEVLNAFLAKIYKRQKGGAEAAAKEAAAKAAEAAAKEAAAKAAEAAAKEAAAKAAEAAAKEAAAKAGGMSDNSIATKILNFGHTCWKLQRPYVVKGMISIACGLFGRELFNNRHLFSWGLMWKAFFALVPILSFNFFAAIMNQIYDVDIDRINKPDLPLVSGEMSIETAWILSIIVALTGLIVTIKLKSAPLFVFIYIFGIFAGFAYSVPPIRWKQYPFTNFLITISSHVGLAFTSYSATTSALGLPFVWRPAFSFIIAFMTVMGMTIAFAKDISDIEGDAKYGVSTVATKLGARNMTFVVSGVLLLNYLVSISIGIIWPQVFKSNIMILSHAILAFCLIFQTRELALANYASAPSRQFFEFIWLLYYAEYFVYVFI
modifications: GPS1.1-F10-MPT4, geranyl diphosphate synthase, membrane-bound prenyltransferase fusion protein
For B8, in assay [1], the CBGA was found to be 350 ± 17 µM, the FCBGA was 54 ± 1 µM and the CBGA/FCBGA is recorded as 6.5.
